For one assay, the target named is HLA-A*0201 (Homo sapiens, UniProt P04439, D140Y/D185E/D98H/E176V/E277Q/G131W/G231S/I119V/I121R/I166T/I218V/L300P/L318F/N151K/N90K/P208A/P217A/Q86G/Q94H/R138H/R169H/T345S). The method, then: T2 cells (2·10^5 cells per well) are incubated with decreasing concentrations of peptides from 100 μM to 0.1 μM in a AIMV medium supplemented with 100 ng/μl of human P2m at 37° C. for 16 hours.
The analysis is achieved by FACS (Guava Easy Cyte).
The relative affinity is then determined as follows:
Each peptide is solubilized by taking into account the amino acid composition. […] Other peptides are resuspended in water or PBS pH7.4.
T2 cells (2·10^5 cells per well) were incubated with decreasing concentrations of peptides from 100 μM to 0.1 μM in a AIMV medium supplemented with 100 ng/μl of human P2m at 37° C. for 16 hours.
The analysis was achieved by FACS (Guava Easy Cyte).

For assay [1], the target named is T1, HLA-A*0201 molecule expressed on human tumor cell line T2 (human).
T1 construct: surface HLA-A2 read with anti-HLA-A2 antibody BB7.2-PE by FACS; also called HLA-A2
The assay can be described thus: T2 cell HLA-A2 stabilisation, FACS; peptide at 1.5625 µM.

The target in assay [2] is T1, HLA-A*0201 molecule expressed on human …. The assay can be described thus: T2 cell HLA-A2 stabilisation, FACS; peptide at 3.125 µM.
Assay [3] shares this target. The assay can be described thus: T2 cell HLA-A2 stabilisation, FACS; peptide at 50 µM.
For assay [4] the target is unchanged. The assay can be described thus: T2 cell HLA-A2 stabilisation, FACS; peptide at 6.25 µM.
For assay [5] the target is unchanged. The assay can be described thus: T2 cell HLA-A2 stabilisation, FACS; ratio of 20% concentration to that of HIV pol 589-597 (lower = stronger).
Assay [6] has the same target. The assay can be described thus: T2 cell HLA-A2 stabilisation, FACS; 20% of signal of HIV pol 589-597 at 100 µM.
The target is the same in assay [7]. The assay can be described thus: T2 cell HLA-A2 stabilisation, FACS; peptide at 100 µM.
For assay [8] the target is unchanged. The assay can be described thus: T2 cell HLA-A2 stabilisation, FACS; peptide at 25 µM.
Assay [9] has the same target. Briefly: T2 cell HLA-A2 stabilisation, FACS; 20% of signal of HIV pol 589-597 at 100 µM. The source holds these as a separate data set.
Assay [10] has the same target. The assay can be described thus: T2 cell HLA-A2 stabilisation, FACS; ratio of 20% concentration to that of HIV pol 589-597 (lower = stronger). This is another data set of the same source.
[11] abbreviates: HLA-A*0201, HIV peptide printed as 1.
Where [12] appears, read: T2 cell line, HLA-A*0201, Example 13, protocol as in Example 3.

From patent publication US20230105457A1, “Immunogenic Compounds For Treatment Of Adrenal Cancer” (ENTEROME S.A., priority 2019, published 2023) come the findings set out here.

Where two headings read alike, the source gives them in different places.

As to YLYTFLIST [IL13RA2-B2], the “In vitro binding affinity” value with HLA-A*0201 (setting [11]) is listed as 5.97. Further, in the assay with HLA-A*0201 (setting [12]), the “Concentration of peptide that induces 20% of HLA-A2 expression” value was found to be 4.5 µM.
Turning to YLPFGFILV [IL13RA2-B5], the “Concentration of peptide that induces 20% of HLA-A2 expression” value with HLA-A*0201 (setting [12]) is 1.5 µM.
Consider “HIV: Reference peptide HIV pol 589-597, positive control (ISPIETVPV; UniProt P04585 589-597, looked up, fragment) [reference compound]”, for which the “In vitro binding affinity” value is reported as 1 in the assay with HLA-A*0201 (setting [11]) and 1.00 with HLA-A*0201 (Table 17, Example 12, relative affinity vs HIV). For the same molecule, in the assay with HLA-A*0201 (Table 17, Example 12), the “Concentration of peptide that induces 20% of HLA-A2 expression” value was determined as 0.85 µM. Besides, the “Relative HLA-A2 labelling on T2 cells (HIV at 100 μM = 100)” value with HLA-A*0201 (Table 18, peptide concentration 0.1 μM) came to 2.405; in the assay with HLA-A*0201 (Table 18, peptide concentration 1 μM) it was 22.14; with HLA-A*0201 (Table 18, peptide concentration 10 μM) it was 84.725; in the assay with HLA-A*0201 (Table 18, peptide concentration 100 μM), 100.
FMPFGFILGV [IL13RA2-B3]: in the assay with HLA-A*0201 (setting [12]), the “Concentration of peptide that induces 20% of HLA-A2 expression” value was 3.3 µM.
For the molecule YMPFGFILV [IL13RA2-B4], the “Concentration of peptide that induces 20% of HLA-A2 expression” value in the assay with HLA-A*0201 (setting [12]) amounted to 4.5 µM.
For the molecule FMPFGFILPI [IL13RA2-B6], the “Concentration of peptide that induces 20% of HLA-A2 expression” value in the assay with HLA-A*0201 (setting [12]) came to 5.9 µM.
Regarding “RVSSYLVPI (listed as Homo sapiens) [FOXM1-H, reference compound]”, the “Concentration of peptide that induces 20% of HLA-A2 expression” value in the assay with HLA-A*0201 (Table 14, Example 8) was determined as 37.6 µM.
As to LMLGEFLKL [2M, reference compound], the “Concentration of peptide that induces 20% of HLA-A2 expression” value in the assay with HLA-A*0201 (Table 17, Example 12) turned out to be 2.87 µM.
As to ALPFGFILV [1A9V, reference compound], the “Concentration of peptide that induces 20% of HLA-A2 expression” value with HLA-A*0201 (setting [12]) came to 20.9 µM; with HLA-A*0201 (Table 12, Example 7) it was 36.5 µM.
Turning to RLSSYLVEI [FOXM1-B], in the assay with HLA-A*0201 (Table 14, Example 8), the “Concentration of peptide that induces 20% of HLA-A2 expression” value turned out to be 46.7 µM.

B1: FOXM1-H (peptide)
peptide: RVSSYLVPI
Turning to B1, the “mean relative fluorescence intensity” value in assay [1] was 0 relative (HIV peptide = 100); in assay [2], 0 relative (HIV peptide = 100); in assay [3], 30.7 relative (HIV peptide = 100); in assay [4], 0 relative (HIV peptide = 100); in assay [7] it was 83.8 relative (HIV peptide = 100); in assay [8] it was 10.5 relative (HIV peptide = 100). In addition, the “In vitro binding affinity (relative affinity)” value in [5] came to 3.7. In addition, in assay [6], the “Concentration of peptide that induces 20% of HLA-A2 expression” value worked out at 37.6 µM.

B2: IL13RA2-B6 (peptide)
peptide: FMPFGFILPI
Regarding B2, the “Concentration of peptide that induces 20% of HLA-A2 expression” value in assay [9] was determined as 5.9 µM. In addition, in [10], the “In vitro binding affinity (relative affinity)” value turned out to be 6.86.

B3: FOXM1-H2 (peptide)
peptide: LMDLSTTPL
For the molecule B3, the “mean relative fluorescence intensity” value was 5.3 relative (HIV peptide = 100) in [1]; 0.9 relative (HIV peptide = 100) in assay [2]; 62.5 relative (HIV peptide = 100) in assay [3]; 19.7 relative (HIV peptide = 100) in [4]; 77.6 relative (HIV peptide = 100) in assay [7]; 65.4 relative (HIV peptide = 100) in assay [8]. For the same molecule, the “In vitro binding affinity (relative affinity)” value in assay [5] was 2.5. Besides, the “Concentration of peptide that induces 20% of HLA-A2 expression” value in [6] is 12.6 µM.

B4: IL13RA2-B3 (peptide)
peptide: FMPFGFILGV
For the molecule B4, the “Concentration of peptide that induces 20% of HLA-A2 expression” value in assay [9] is 3.3 µM. Further, the “In vitro binding affinity (relative affinity)” value in assay [10] turned out to be 4.39.

B5: FOXM1-B2 (peptide)
peptide: LMDLSTTEV
Take B5: the “mean relative fluorescence intensity” value in assay [1] is 7.2 relative (HIV peptide = 100); in [2], 12.7 relative (HIV peptide = 100); in assay [3], 91.5 relative (HIV peptide = 100); in assay [4] it was 33.5 relative (HIV peptide = 100); in assay [7], 105 relative (HIV peptide = 100); in [8], 98.2 relative (HIV peptide = 100). In addition, in [5], the “In vitro binding affinity (relative affinity)” value is 1.3. Further, the “Concentration of peptide that induces 20% of HLA-A2 expression” value in [6] amounted to 6.7 µM.

B6: FOXM1-B (peptide)
peptide: RLSSYLVEI
As for B6, the “mean relative fluorescence intensity” value in assay [1] was 0 relative (HIV peptide = 100); in assay [2], 0 relative (HIV peptide = 100); in assay [3], 21.3 relative (HIV peptide = 100); in [4], 0 relative (HIV peptide = 100); in assay [7], 47.5 relative (HIV peptide = 100); in assay [8] it was 7.6 relative (HIV peptide = 100). For the same molecule, the “In vitro binding affinity (relative affinity)” value in assay [5] amounted to 4.6. In addition, the “Concentration of peptide that induces 20% of HLA-A2 expression” value in [6] was 46.7 µM.

B7: BIRC5-B3 (peptide)
peptide: GLLGEFLQI
On to B7, for which the “mean relative fluorescence intensity” value in assay [1] was 9.4 relative (HIV peptide = 100); in [2], 8.9 relative (HIV peptide = 100); in assay [3], 29.8 relative (HIV peptide = 100); in assay [7], 35 relative (HIV peptide = 100); in assay [8] it was 20.9 relative (HIV peptide = 100). Besides, in assay [5], the “In vitro binding affinity (relative affinity)” value stood at 7. Besides, in assay [6], the “Concentration of peptide that induces 20% of HLA-A2 expression” value was found to be 22.9 µM.

B8: IL13RA2-B2 (SEQ ID NO: 64, Example 13) (peptide)
peptide: FMPFGFILV
In the case of B8, the “Concentration of peptide that induces 20% of HLA-A2 expression” value in [9] stood at 4.5 µM. Further, the “In vitro binding affinity (relative affinity)” value in [10] turned out to be 5.97.

B9: IL13RA2-B5 (peptide)
peptide: YLPFGFILV
Turning to B9, the “Concentration of peptide that induces 20% of HLA-A2 expression” value in assay [9] was determined as 1.5 µM. Further, in [10], the “In vitro binding affinity (relative affinity)” value was determined as 1.76.

B10: IL13RA2-B4 (peptide)
peptide: YMPFGFILV
As for B10, the “Concentration of peptide that induces 20% of HLA-A2 expression” value in assay [9] was determined as 4.5 µM. For the same molecule, the “In vitro binding affinity (relative affinity)” value in assay [10] turned out to be 5.24.

B11: BIRC5-B2 (peptide)
peptide: YTLGEFLYI
Take B11: the “mean relative fluorescence intensity” value in assay [2] was 6.6 relative (HIV peptide = 100); in assay [3], 54.4 relative (HIV peptide = 100); in assay [4] it was 9 relative (HIV peptide = 100); in assay [7], 58 relative (HIV peptide = 100); in assay [8], 29.6 relative (HIV peptide = 100). In addition, in [5], the “In vitro binding affinity (relative affinity)” value turned out to be 4.5. Also, the “Concentration of peptide that induces 20% of HLA-A2 expression” value in assay [6] came to 14.7 µM.

B12: IL13RA2-H (peptide)
peptide: WLPFGFILI
As to B12, the “mean relative fluorescence intensity” value was 3 relative (HIV peptide = 100) in assay [1]; 3.7 relative (HIV peptide = 100) in [2]; 14.2 relative (HIV peptide = 100) in assay [3]; 9.6 relative (HIV peptide = 100) in [4]; 26.5 relative (HIV peptide = 100) in [7]; 11.2 relative (HIV peptide = 100) in assay [8]. Moreover, in assay [9], the “Concentration of peptide that induces 20% of HLA-A2 expression” value was determined as 62.3 µM. Also, the “In vitro binding affinity (relative affinity)” value in assay [10] worked out at 78.8.
